Earlier results, collected in PMC8151241.

What was measured:
[1] = target: GAPDH (Chlamydomonas reinhardtii) (UniProt P50362)
[2] = target: PRK (Chlamydomonas reinhardtii) (UniProt P19824)
[3] = target: CP12-GAPDH complex (Chlamydomonas reinhardtii) (UniProt A6Q0K5)

UniProt P50362, sequence (P50362 35-374): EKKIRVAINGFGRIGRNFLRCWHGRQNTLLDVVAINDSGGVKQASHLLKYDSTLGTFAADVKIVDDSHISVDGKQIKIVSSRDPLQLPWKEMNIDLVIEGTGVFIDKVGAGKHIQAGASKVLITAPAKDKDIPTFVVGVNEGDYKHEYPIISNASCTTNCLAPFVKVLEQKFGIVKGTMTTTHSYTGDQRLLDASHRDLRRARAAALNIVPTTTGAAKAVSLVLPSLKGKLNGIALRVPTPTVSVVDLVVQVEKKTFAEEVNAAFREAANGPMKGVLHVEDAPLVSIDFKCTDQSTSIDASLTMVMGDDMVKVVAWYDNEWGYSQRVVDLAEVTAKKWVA

Substance | Kd [1] | Kd [2] | Kd [3]
CP12 (from UniProt A6Q0K5) | 0.4 nM | 1300 nM | –
PRK (from UniProt P19824) | – | – | 60 nM
